# Results as given in article PMC6727741.
# Target: IFT dynein heavy chain (D1bHC) (Chlamydomonas reinhardtii (endogenous in cc4533 and wdr92-1 cells)) (UniProt Q9SMH5)
# Assay: SEC
substance,measurement,value
"IFT dynein heavy chain (D1bHC), Q9SMH5 1-4334",stoichiometry N,2
